Experimental findings from the supplement of paper PMC10567573 are described below.

± gives the standard deviation.

The nature of this data set: protein stability index of a GFP-peptide fusion (GPS, HEK-293T) (PSI 1-6); higher = more stable. As to conditions: c terminus: a fixed tail appended.
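Also: 24-mer peptide tiles fused after GFP, lentivirally expressed, FACS-sorted into six equal bins by GFP/DsRed ratio, decoded by Illumina sequencing, PSI is the read-weighted mean bin number.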

For the sequence APFPPPPAADGARAPRSPGQVTPR [C6orf223], the protein stability index (treatment: DMSO) was determined as 5.14 ± 0.54 and the protein stability index (treatment: MLN4924 1 uM, 8 h) is 5.25 ± 0.11.

Turning to APRVRTAFTMEQVRTLEGVFQHHQ [VENTX], the protein stability index is, setting by setting: (treatment: DMSO) 3.33 ± 0.22; (treatment: MLN4924 1 uM, 8 h) 3.26 ± 0.22.

The sequence APSCAIMISTYEFGKSFFQRLNQD [SLC25A39] gave a protein stability index (treatment: DMSO) of 2.47 ± 0.86 and a protein stability index (treatment: MLN4924 1 uM, 8 h) of 2.06 ± 0.33.

For AQAIDFINRCSVLRQLGCKDGKNW [SPOPL], the protein stability index reads like this: (treatment: DMSO) 2.29 ± 0.24; (treatment: MLN4924 1 uM, 8 h) 2.58 ± 0.42.

For the sequence AQGRAGAPVPEPPKEEQQQALEQF [EPB41L3], the protein stability index (treatment: DMSO) was found to be 5.62 ± 0.27 and the protein stability index (treatment: MLN4924 1 uM, 8 h) worked out at 5.34 ± 0.3.

In the case of AQHKDRSTQLEMQLEKPKPVKPVT [MNAT1], the protein stability index was 4.71 ± 0.24 (treatment: DMSO) and 4.82 ± 0.36 (treatment: MLN4924 1 uM, 8 h).

As to AQLELYQLQVESNSSQLLLRRHAG [SCARA5], the protein stability index is 2.71 ± 0.26 (treatment: DMSO) and 2.9 ± 0.25 (treatment: MLN4924 1 uM, 8 h).

With AQMAKAAAEERALFTDRMATRSTT [WEE1], the protein stability index was found to be 4.8 ± 0.21 (treatment: DMSO) and 4.87 ± 0.25 (treatment: MLN4924 1 uM, 8 h).

As for AQRPGITHGVGLVLRVEQQPHLPL [SCNN1D], the protein stability index was determined as 2.59 ± 0.17 (treatment: DMSO) and 2.85 ± 0.15 (treatment: MLN4924 1 uM, 8 h).

In the case of AQYDSWPHYPEYFQQPAPEYHQPQ [LOXL2], the protein stability index by setting is: (treatment: DMSO) 3.62 ± 0.48; (treatment: MLN4924 1 uM, 8 h) 3.8 ± 0.49.

For the sequence ARGSIVATYIFIFIGETLLSMNWA [SPNS1], the protein stability index is, setting by setting: (treatment: DMSO) 3.4 ± 0.55; (treatment: MLN4924 1 uM, 8 h) 2.88 ± 0.55.

Turning to ARIVEIYSRRLQVQERLTKQIAVA [GCH1], the protein stability index by setting is: (treatment: DMSO) 2.33 ± 0.37; (treatment: MLN4924 1 uM, 8 h) 2.37 ± 0.2.

As to ASLAAAKKQLADETLLKVDLENRC [LMNB1], the protein stability index is, setting by setting: (treatment: DMSO) 4.35 ± 0.12; (treatment: MLN4924 1 uM, 8 h) 4.46 ± 0.24.

In the case of ASMSPDATKPSHWCSVAYWEHRTR [SMAD6], the protein stability index was 2.84 ± 0.24 (treatment: DMSO) and 2.87 ± 0.27 (treatment: MLN4924 1 uM, 8 h).

For ASPSSSVRLGSFRSPRAGAGALLR [PRPH], the protein stability index (treatment: DMSO) stood at 3.65 ± 0.26 and the protein stability index (treatment: MLN4924 1 uM, 8 h) worked out at 3.81 ± 0.19.

Turning to ATNDDPWGPSGQLMGEIAKATFMY [CLINT1], the protein stability index runs as follows: (treatment: DMSO) 2.34 ± 0.38; (treatment: MLN4924 1 uM, 8 h) 2.32 ± 0.27.

For the sequence AVLGLLLVLAAVVAWCYYSVSLRK [MYORG], the protein stability index by setting is: (treatment: DMSO) 2.69 ± 0.52; (treatment: MLN4924 1 uM, 8 h) 2.77 ± 0.78.

In the case of AVPPTSSVPPVAGAPSVGQPGAGF [SNAP91], the protein stability index runs as follows: (treatment: DMSO) 4.53 ± 0.23; (treatment: MLN4924 1 uM, 8 h) 4.42 ± 0.086.

On to AVVRLNKKIYEAKRFTDAGFEHYD [CDC14A], for which the protein stability index is, setting by setting: (treatment: DMSO) 2.54 ± 0.38; (treatment: MLN4924 1 uM, 8 h) 2.52 ± 0.25.

Consider AWFFSKTEELNKEVASNTEMIQTS [KRT15], for which the protein stability index (treatment: DMSO) came out at 3.83 ± 0.18 and the protein stability index (treatment: MLN4924 1 uM, 8 h) came out at 3.84 ± 0.081.

Take AWGFPENATAPRSPSHSPEHRRTA [ELOA2]: the protein stability index (treatment: DMSO) was 5 ± 0.15 and the protein stability index (treatment: MLN4924 1 uM, 8 h) is 4.87 ± 0.16.

As to AWNIPMSNPGVDFGDVSERLALRQ [GALNT9], the protein stability index is, setting by setting: (treatment: DMSO) 3.68 ± 0.27; (treatment: MLN4924 1 uM, 8 h) 3.91 ± 0.26.

In the case of CADVLFILQDQEHIFAHRIYLATS [RHOBTB1], the protein stability index is 2.93 ± 0.44 (treatment: DMSO) and 2.89 ± 0.48 (treatment: MLN4924 1 uM, 8 h).

In the case of CCVKTELLGEETPMAADEGSAEKQ [EHMT1], the protein stability index was found to be 5.45 ± 0.22 (treatment: DMSO) and 5.47 ± 0.12 (treatment: MLN4924 1 uM, 8 h).

CDPGMTAFEPEALGNLVEGLDFHR [CAMK2A]: the protein stability index worked out at 4.17 ± 0.096 (treatment: DMSO) and 4.2 ± 0.19 (treatment: MLN4924 1 uM, 8 h).

CELAQDKEAAEAIEAEGATAPLTE [CTNNB1]: the protein stability index runs as follows: (treatment: DMSO) 5.49 ± 0.41; (treatment: MLN4924 1 uM, 8 h) 5.53 ± 0.23.

In the case of CGDVHGQFHDLMELFRIGGKSPDT [PPP2CA], the protein stability index by setting is: (treatment: DMSO) 2.69 ± 0.34; (treatment: MLN4924 1 uM, 8 h) 2.84 ± 0.15.

Take CGWPRGKDAPCYESDTDIYETVAA [DRICH1]: the protein stability index is 3.18 ± 0.23 (treatment: DMSO) and 3.31 ± 0.27 (treatment: MLN4924 1 uM, 8 h).

Take CHLAHELRLSCMERKKVQIRSMDP [DCAF4]: the protein stability index came out at 2.39 ± 0.25 (treatment: DMSO) and 2.42 ± 0.2 (treatment: MLN4924 1 uM, 8 h).

In turn, CHLNGIVHRDLKPENLLLASKSKG [CAMK2D] came in with a protein stability index (treatment: DMSO) of 3.52 ± 0.36 and a protein stability index (treatment: MLN4924 1 uM, 8 h) of 3.56 ± 0.19.

For CICGFTHDDGYMICCDKCSVWQHI [KMT2E], the protein stability index is, setting by setting: (treatment: DMSO) 3.19 ± 0.39; (treatment: MLN4924 1 uM, 8 h) 3.29 ± 0.41.

For CIFDKFECVWNGSDSVIMTGSYNN [PPP2R2B], the protein stability index (treatment: DMSO) was 2.27 ± 0.34 and the protein stability index (treatment: MLN4924 1 uM, 8 h) is 2.21 ± 0.14.

Regarding CIVSPDRPGVQDAALIEAIQDRLS [VDR], the protein stability index was 3.55 ± 0.14 (treatment: DMSO) and 3.65 ± 0.25 (treatment: MLN4924 1 uM, 8 h).

Turning to CLESTKLLADLKKCGDLECEALIN [MIA2], the protein stability index is, setting by setting: (treatment: DMSO) 3 ± 0.32; (treatment: MLN4924 1 uM, 8 h) 3.25 ± 0.14.

In the case of CLGLSYDGLLGDNQIMPKAGLLII [MAGEA3], the protein stability index amounted to 3.12 ± 0.68 (treatment: DMSO) and 2.73 ± 0.61 (treatment: MLN4924 1 uM, 8 h).

Take CPIIRIPNRFLRGHRPPPARSGHR [KLHDC10]: the protein stability index is 2.68 ± 0.69 (treatment: DMSO) and 3.32 ± 0.85 (treatment: MLN4924 1 uM, 8 h).
